Target: inhibitor of nuclear factor kappa B kinase subunit beta (IKBKB), FLAG-tagged (UniProt O14920)
Assay: TR-FRET protein-protein interaction assay (2B7-Tb/anti-FLAG-D2)
Conditions: peak of the lysate titration curve (mutant peak at about 3 ug/well, WT peak at about 5 ug/well); HEK293T lysates; parent: est. 0.30; read off a plot

**Q.** Which response (Fluorescence Ratio (665/615)) does the source give for “N571 Q55 HTT (N-terminal huntingtin fragment 1-571 with 55 glutamines) S13A; S16A” here?
**A.** 0.26

Source: publication PMC10410066
